Molecular target: T1, 重组人唾液酸结合免疫球蛋白样凝集素-9蛋白 (human, UniProt Q9Y336 18-348, limits assumed)
T1 construct: Purified recombinant protein coated on ELISA plates and (as 'antigen') coupled to the CM5 chip; also called recombinant human Siglec-9; Siglec9蛋白
Assay: SPR (Biacore X100), antigen coupled to CM5 chip, analyte 0-80 nM

T1 sequence (Q9Y336 18-348 limits assumed): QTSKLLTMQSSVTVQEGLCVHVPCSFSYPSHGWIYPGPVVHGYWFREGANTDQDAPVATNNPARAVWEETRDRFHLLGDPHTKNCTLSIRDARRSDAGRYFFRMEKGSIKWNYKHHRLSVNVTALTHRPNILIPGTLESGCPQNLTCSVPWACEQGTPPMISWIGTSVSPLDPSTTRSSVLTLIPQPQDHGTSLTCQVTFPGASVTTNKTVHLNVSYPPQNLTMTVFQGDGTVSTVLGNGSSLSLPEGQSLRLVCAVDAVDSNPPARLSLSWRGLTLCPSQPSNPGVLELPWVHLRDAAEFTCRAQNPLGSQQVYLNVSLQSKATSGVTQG

B1: 人源抗唾液酸结合免疫球蛋白样凝集素-9抗体IgG (antibody, V domains shown)
VH: EVQLVESGAEVKKPGASVKVSCKASGYIFTGYYMHWVRQAPGQGLEWMGWINPKSGGTNYAQKFQGRVTMTRDTSISTAYMELSRLRSDDTAVYYCVRDLGATGGDYWGQGTLVTVSS
VL: ELVLTQPPSVSVSPGQTARVTCSGDALPKKYAYWYQQKSGQAPILVIYGDNKRPSGIPERFSGSSSGTMATLTISGAQVEDEADYYCYSIDRSGNRVFGGGTRLTVLQ
notes: also called PA21抗体; 抗Siglec-9抗体
- Kd: 0.738 nM
